# Results: publication PMC10352601 (Blood, 2023)
# T1: ET3i, a bioengineered human/porcine FVIII chimera (Homo sapiens / Sus scrofa chimera (A1, …, chimera))
# T1 chain: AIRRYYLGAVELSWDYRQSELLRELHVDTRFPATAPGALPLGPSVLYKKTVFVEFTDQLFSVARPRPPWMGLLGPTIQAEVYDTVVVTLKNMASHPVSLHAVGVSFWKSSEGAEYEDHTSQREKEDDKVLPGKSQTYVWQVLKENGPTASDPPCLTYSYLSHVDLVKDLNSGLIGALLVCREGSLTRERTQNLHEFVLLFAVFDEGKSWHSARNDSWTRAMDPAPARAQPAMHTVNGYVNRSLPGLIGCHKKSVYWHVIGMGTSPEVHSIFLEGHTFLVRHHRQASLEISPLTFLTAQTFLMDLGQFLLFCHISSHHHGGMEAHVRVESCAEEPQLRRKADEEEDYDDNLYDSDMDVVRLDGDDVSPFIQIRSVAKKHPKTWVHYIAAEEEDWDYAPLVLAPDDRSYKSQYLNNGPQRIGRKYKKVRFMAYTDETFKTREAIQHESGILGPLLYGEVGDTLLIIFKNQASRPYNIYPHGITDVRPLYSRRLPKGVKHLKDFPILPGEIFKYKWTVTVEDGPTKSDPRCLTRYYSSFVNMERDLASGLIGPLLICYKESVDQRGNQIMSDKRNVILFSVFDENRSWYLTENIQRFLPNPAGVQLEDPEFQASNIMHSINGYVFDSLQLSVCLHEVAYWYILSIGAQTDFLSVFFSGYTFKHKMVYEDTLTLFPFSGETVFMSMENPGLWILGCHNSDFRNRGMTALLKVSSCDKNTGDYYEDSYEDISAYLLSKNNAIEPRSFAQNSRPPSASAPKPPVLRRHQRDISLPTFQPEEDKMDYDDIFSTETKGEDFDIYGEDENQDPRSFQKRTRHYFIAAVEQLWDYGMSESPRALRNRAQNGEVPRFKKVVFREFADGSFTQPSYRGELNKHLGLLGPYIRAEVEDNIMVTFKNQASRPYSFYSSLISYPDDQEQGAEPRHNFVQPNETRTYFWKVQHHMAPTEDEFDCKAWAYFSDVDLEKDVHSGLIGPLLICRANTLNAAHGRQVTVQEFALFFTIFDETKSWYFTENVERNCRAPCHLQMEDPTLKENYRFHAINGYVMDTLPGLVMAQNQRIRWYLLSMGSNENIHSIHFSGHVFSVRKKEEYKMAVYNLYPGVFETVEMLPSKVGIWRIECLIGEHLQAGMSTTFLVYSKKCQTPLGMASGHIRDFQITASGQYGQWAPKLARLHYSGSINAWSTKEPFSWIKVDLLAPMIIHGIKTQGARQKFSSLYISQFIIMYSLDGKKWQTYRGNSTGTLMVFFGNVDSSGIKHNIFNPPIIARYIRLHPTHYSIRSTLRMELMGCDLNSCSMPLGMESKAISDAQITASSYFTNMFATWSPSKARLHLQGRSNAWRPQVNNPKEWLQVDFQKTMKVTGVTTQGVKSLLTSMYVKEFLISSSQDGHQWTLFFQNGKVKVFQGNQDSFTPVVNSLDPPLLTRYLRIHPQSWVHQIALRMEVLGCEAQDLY
# B1: Fab fragment of NB33, a recombinant immunoglobulin G derivative of KM33 (Fab, V domains shown)
# VH: EVQLVESGGGVVQPGRSLRLSCVDSGLTFSSYGMHWVRQAPGAGLEWVAVISYDGNDKYYADSVKGRFAISRDNAKNTLYLQMNSLTIEDTAVYYCAKDLIESNIAEAFWGQGTLVTVSS
# VL: DIQMTQSPSSLSASVGDTVTIACRASRDIRNDLAWYQQKPGKAPKLLIYATSRLQSGVPSRFSGSGSFTDFTLTINSLQPDDSATYYCLQDSDYPLTFGGGTKVDIK
# Molecular target: T1, ET3i, a bioengineered human/porcine …
# Experiment: cell-based or functional assay
binder,measurement,value
B1,"neutralization of ET3i by NB33, factor X activation chromogenic assay (IC50)",3.64 nM
